The record followed here is PMC7069074.

The target in the data set is T1, ERα (purified) (UniProt P03372).
T1 sequence: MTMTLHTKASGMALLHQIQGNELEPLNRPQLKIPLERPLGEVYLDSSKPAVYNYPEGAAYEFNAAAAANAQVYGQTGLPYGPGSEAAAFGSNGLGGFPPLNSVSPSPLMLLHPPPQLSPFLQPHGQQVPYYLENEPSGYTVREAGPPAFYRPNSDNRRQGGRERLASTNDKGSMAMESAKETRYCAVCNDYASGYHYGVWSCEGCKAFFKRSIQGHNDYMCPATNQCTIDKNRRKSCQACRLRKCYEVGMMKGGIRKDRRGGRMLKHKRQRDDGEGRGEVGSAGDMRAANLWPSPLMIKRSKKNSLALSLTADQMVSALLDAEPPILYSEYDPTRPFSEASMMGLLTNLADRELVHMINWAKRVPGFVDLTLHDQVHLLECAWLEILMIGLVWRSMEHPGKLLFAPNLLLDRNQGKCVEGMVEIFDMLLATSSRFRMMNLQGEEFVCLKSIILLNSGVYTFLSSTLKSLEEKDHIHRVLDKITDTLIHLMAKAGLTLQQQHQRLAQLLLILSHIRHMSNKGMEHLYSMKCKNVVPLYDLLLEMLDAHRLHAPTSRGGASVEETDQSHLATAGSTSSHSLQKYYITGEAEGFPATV
The data set is described as follows: EMSA (1% agarose, ethidium bromide). Particulars: EMSA: 0.1 M KCl, 1 mM DTT, 1 mM MgCl2, 10 mM HEPES pH 7.6, 37 °C, 30 min; pull-down: lysate in 5 mM PIPES, 85 mM KCl, 0.5% NP-40, 2 mM PMSF, 4 °C overnight …. Background: Mobility shift assays separate free from complexed probe on a gel.

As to “AACGGAGTGTAGTCGGCTGACCCCTAGCATAGAGCAGTGCTGTTGGCTACTAACCACACCTCTCTACCTCTTTCTTACTCTAATATTACCCACCACAACAGCCAGAAAGTTCTTTTGAGAACATCTATCTGATCATGACACTGTCTTACTTAAAATCTTCCAGTGACTACTATTACCCTTAGGGTAGTCCAGATTCCATAATGTGGTTTACTGGACTCTATGACTTCTAAGAGAAGTCTTAGAGT (double strand) [YB-1 promoter]”, the binding entry was “binds”.
